± gives the standard deviation of the averaged measurements.

Data set [1] has as its system Saccharomyces cerevisiae. Nature of the data set: protein stability index of tFT-peptide fusion (C-terminal peptide) (PSI (0-1 scale)); higher = more stable (slower turnover). How it is done: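 MPS profiling in S. cerevisiae of the tFT-X12 degron library: putative degron peptides plus stable controls, 12 aa, fused to the C-terminus of a sfGFP-mCherry timer. Cells are FACS-sorted into 8 mCherry/sfGFP bins and deep-sequenced. PSI runs from 0 (unstable) to 1 (stable). Backgrounds are wild type, das1Δ and doa10Δ at 30 °C, and wild type, das1Δ, cdc34-1 and cdc53-1 at 37 °C; 2-3 technical replicates each.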

For data set [2], the system named is Saccharomyces cerevisiae. Described as above. Particulars: genetic background: wild type; temperature: 30 C.
The mark [3] stands for this setting: genetic background: cdc34-1, temperature: 37 C.
Setting [4] is: genetic background: cdc53-1, temperature: 37 C.
Where [5] appears, read: genetic background: das1 deletion, temperature: 30 C.
Setting [6] is: genetic background: das1 deletion, temperature: 37 C.
Where [7] appears, read: genetic background: doa10 deletion, temperature: 30 C.
Where [8] appears, read: genetic background: wild type, temperature: 30 C.
Where [9] appears, read: genetic background: wild type, temperature: 37 C.
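Also: PSI is a weighted mean of sequencing reads over stability bins, variants kept only with over 10 reads, mCherry proximal and sfGFP distal, peptide attached via GGGS linker.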

As for PVPERTSATEPP, the protein stability index amounted to 0.61 ± 0.052 in the data set on Saccharomyces cerevisiae [1] (setting [3]); 0.667 ± 0.029 in the data set on Saccharomyces cerevisiae [1] (setting [4]); 0.617 ± 0.038 in the data set with Saccharomyces cerevisiae [1] (setting [5]); 0.6671 ± 0.006 in the data set on Saccharomyces cerevisiae [1] (setting [6]); 0.634 ± 0.0083 in the data set on Saccharomyces cerevisiae [1] (setting [7]); 0.627 ± 0.019 in the data set with Saccharomyces cerevisiae [1] (setting [8]). Also, the protein stability index in the data set with Saccharomyces cerevisiae [1] (setting [9]) was 0.655 ± 0.0013. Regarding RLLLLPGPLALQ, the protein stability index was 0.634 ± 0.022 in the data set on Saccharomyces cerevisiae [1] (setting [3]); 0.73 ± 0.034 in the data set with Saccharomyces cerevisiae [1] (setting [4]); 0.67 ± 0.022 with Saccharomyces cerevisiae [1] (setting [5]); 0.7 ± 0.016 in the data set on Saccharomyces cerevisiae [1] (setting [6]); 0.685 ± 0.054 with Saccharomyces cerevisiae [1] (setting [7]); 0.673 ± 0.021 in the data set with Saccharomyces cerevisiae [1] (setting [8]). For the same sequence, the protein stability index in the data set with Saccharomyces cerevisiae [1] (setting [9]) amounted to 0.714 ± 0.062.

Turning to RRAVGLANFTIK, the protein stability index with Saccharomyces cerevisiae [1] (setting [3]) is 0.705 ± 0.016; in the data set with Saccharomyces cerevisiae [1] (setting [4]), 0.773 ± 0.035; with Saccharomyces cerevisiae [1] (setting [5]), 0.678 ± 0.062; in the data set with Saccharomyces cerevisiae [1] (setting [6]), 0.693 ± 0.028; in the data set with Saccharomyces cerevisiae [1] (setting [7]) it was 0.639 ± 0.06; with Saccharomyces cerevisiae [1] (setting [8]), 0.671 ± 0.019. The same sequence registered a protein stability index in the data set on Saccharomyces cerevisiae [1] (setting [9]) of 0.706 ± 0.022. For VLICFSVFSWVV, the protein stability index amounted to 0.0264 ± 0.00023 in the data set with Saccharomyces cerevisiae [1] (setting [3]); 0.0313 ± 0.00079 in the data set with Saccharomyces cerevisiae [1] (setting [4]); 0.0368 ± 0.01 in the data set with Saccharomyces cerevisiae [1] (setting [5]); 0.0531 ± 0.0097 in the data set on Saccharomyces cerevisiae [1] (setting [6]); 0.0228 ± 0.0066 in the data set on Saccharomyces cerevisiae [1] (setting [7]); 0.0178 ± 0.0049 with Saccharomyces cerevisiae [1] (setting [8]). This sequence also gave a protein stability index in the data set on Saccharomyces cerevisiae [1] (setting [9]) of 0.0371 ± 0.0086. With VPPGCSLFAFIL, the protein stability index is 0.7246 ± 0.005 in the data set with Saccharomyces cerevisiae [1] (setting [3]); 0.75537 ± 0.00043 with Saccharomyces cerevisiae [1] (setting [4]); 0.644 ± 0.025 in the data set with Saccharomyces cerevisiae [1] (setting [5]); 0.7794 ± 0.005 in the data set on Saccharomyces cerevisiae [1] (setting [6]); 0.555 ± 0.032 with Saccharomyces cerevisiae [1] (setting [7]); 0.547 ± 0.019 in the data set on Saccharomyces cerevisiae [1] (setting [8]). The sequence also returned a protein stability index in the data set on Saccharomyces cerevisiae [1] (setting [9]) of 0.73 ± 0.01. Sequence WLRRFIFGSVVN gave a protein stability index in the data set on Saccharomyces cerevisiae [2] of 0.657 ± 0.015.

In the data set with Saccharomyces cerevisiae [2], WPPRPPRPSSTL registered a protein stability index of 0.724 ± 0.011. In the data set on Saccharomyces cerevisiae [2], WPSCKVHSPSPS had a protein stability index of 0.675 ± 0.016. In the data set on Saccharomyces cerevisiae [2], WPWLHSVACLYS displayed a protein stability index of 0.626 ± 0.09. In the case of WRAVVVSGTVAY, in the data set on Saccharomyces cerevisiae [2], the protein stability index amounted to 0.578 ± 0.025. WRGGAWVRGCVL gave a protein stability index in the data set with Saccharomyces cerevisiae [2] of 0.74 ± 0.04. For WRGGWAETGGRE, in the data set on Saccharomyces cerevisiae [2], the protein stability index turned out to be 0.705 ± 0.013. WRRCSGVGVGSP showed a protein stability index in the data set with Saccharomyces cerevisiae [2] of 0.663 ± 0.072. WRWCGLWDTRTY: the protein stability index in the data set on Saccharomyces cerevisiae [2] amounted to 0.819 ± 0.0085. Same read-out and setting: then WSFMYLYFFDSW, with 0.685 ± 0.086. In the data set on Saccharomyces cerevisiae [2], WSGREGRGEWGW showed a protein stability index of 0.791 ± 0.024. As for WSIVVDDISWSV, the protein stability index in the data set on Saccharomyces cerevisiae [2] amounted to 0.698 ± 0.013.

In turn, WSLGPDVCGGVV yielded a protein stability index in the data set with Saccharomyces cerevisiae [2] of 0.708 ± 0.027. WSPGGGPLGLYE: the protein stability index in the data set with Saccharomyces cerevisiae [2] came to 0.743 ± 0.018. Take WSRRGQRGKAWR: the protein stability index in the data set with Saccharomyces cerevisiae [2] came out at 0.733 ± 0.12.

In the case of WSRSGGWEKYGV, the protein stability index with Saccharomyces cerevisiae [2] was 0.681 ± 0.024. Consider WSRVQFFYFCWI, for which the protein stability index in the data set with Saccharomyces cerevisiae [2] was 0.547 ± 0.051.

In the data set with Saccharomyces cerevisiae [2], WSSTLFFFVGFS came in with a protein stability index of 0.673 ± 0.056.

In turn, WSSTPSCVPDLP yielded a protein stability index with Saccharomyces cerevisiae [2] of 0.721 ± 0.054. As to WSVVGVGGCGAR, the protein stability index in the data set on Saccharomyces cerevisiae [2] was found to be 0.712 ± 0.041. In the data set with Saccharomyces cerevisiae [2], WSVVRGGGCGAR gave a protein stability index of 0.697 ± 0.028. With WTLELSGWLRSE, the protein stability index in the data set with Saccharomyces cerevisiae [2] came out at 0.77 ± 0.079.

In the case of WVCRVWGGWLRG, the protein stability index in the data set on Saccharomyces cerevisiae [2] amounted to 0.686 ± 0.044. In the data set with Saccharomyces cerevisiae [2], WVGGGRAKAKRE had a protein stability index of 0.696 ± 0.054. In turn, WVGRIRGMEGWM showed a protein stability index with Saccharomyces cerevisiae [2] of 0.696 ± 0.037. For WVGSWYVATGEA, the protein stability index with Saccharomyces cerevisiae [2] amounted to 0.754 ± 0.063. In turn, WVGYAWDGKFDL gave a protein stability index with Saccharomyces cerevisiae [2] of 0.736 ± 0.11. WVREFSHKHVMS showed a protein stability index in the data set on Saccharomyces cerevisiae [2] of 0.718 ± 0.01. The same measure, in the same setting: then WVRVSVPAVGRI, with 0.7035 ± 0.0067; and WVSDTNNTSRRK, with 0.752 ± 0.051. On to WVSFVFCSLLGG, for which, in the data set on Saccharomyces cerevisiae [2], the protein stability index was found to be 0.588 ± 0.018. Take WVSHMHLGSFVH: the protein stability index in the data set on Saccharomyces cerevisiae [2] is 0.701 ± 0.09.

In the data set on Saccharomyces cerevisiae [2], WVSPALEALYRK registered a protein stability index of 0.764 ± 0.07. Regarding WWFGGETGVGGR, the protein stability index in the data set with Saccharomyces cerevisiae [2] came to 0.712 ± 0.039. On to WWPDILWLNTGW, for which, in the data set with Saccharomyces cerevisiae [2], the protein stability index is 0.701 ± 0.035.

The values are drawn from the supplement of paper PMC10724198.
